In patent publication US9823254B2, “Reversible chemoenzymatic labeling of native and fusion carrier protein motifs” (The Regents of the University of California, priority 2012, dated 2017):

Legend:
[1] = target: E. coli ACP (AcpP) (Escherichia coli, UniProt P0A6A8); details: SDS-PAGE
Experimental: 50 mL LB media supplemented with 25 μM calcium D-pantothenate, 50 mM D-glucose, and 50 μg/mL kanamycin utilized previously. Media was inoculated with 1 mL of overnight DK554 starter culture and grown to OD=0.4. IPTG was added at a concentration of 1 mM to the media and was shaken for 5 hours at 37° C. Media was centrifuged at 4000 rpm at 4° C. for 30 minutes to pellet cells. Cell pellets were resuspended in 25 mM TrisCl pH 7.5, 250 mM NaCl, 0.1 mg/mL lysozyme, 10 μM pepstatin, 10 μM leupeptin and passed twice through a French pressure device at 1000 psi. Removal of coumarin-pantetheine from ACP in 5 mL lysate used 10 μM MBP-AcpH fusion in 600 mL AcpH reaction buffer (50 mM TrisCl, pH 8.0, 100 mM NaCl, 10% glycerol, 15 mM MgCl2, 1 mM MnCl2) within a 3 kDa MWCO dialysis bag at 37° C. overnight.
E. coli DK554 cell lysate with total protein concentration of approximately 2 mg/mL was added to the volume of premade 10×PPTase reaction buffer (500 mM Na-HEPES, 100 mM MgCl2, pH 7.4) that brought the total reaction concentration to 50 mM Na-HEPES pH 7.4, 10 mM MgCl2, 5 μM of coumarin-CoA, and 2 μM Sfp. […]

[2] = system: ACP fusion proteins (MBP, GFP, Lux-ACP); assay: AcpH label removal from rhodamine-labeled ACP fusion proteins; assay type: biochemical; details: N-terminal MBP, C-terminal GFP, N-terminal luciferase (Lux-ACP) fusions
Experimental: Purified apo-MBP-PaACP at 200 μM was labeled with 1 mM rhodamine-CoA and 13 μM native Sfp in a reaction volume of 20 μL for 3 hours at 37° C. Purified apo-GFP-ACP at 150 μM was labeled with 1 mM rhodamine-CoA and 7 μM native Sfp in a reaction volume of 35 μL for 3 hours at 37° C. Purified apo-Lux-ACP at 12 μM was labeled with 50 μM rhodamine-CoA and 3 μM native Sfp for 1 hour at 37° C. Fusion ACPs were then re-purified from excess rhodamine-CoA and native Sfp using Ni-NTA resin, and buffer exchanged and concentrated using 10 kDa MWCO 0.5 mL Amicon spin filters (Millipore). Label removal of MBP-ACP and GFP-ACP proceeded with 4 μL of the concentrated crypto-fusion ACPs with 10 μM AcpH in 10 μL of AcpH reaction buffer for 3 hours at 37° C. 6 μM crypto-Lux-ACP was reacted with 5 μM AcpH for 3 hours at 37° C. AcpH reaction samples were run immediately afterwards on Urea-PAGE (MBP-ACP and GFP-ACP) or SDS-PAGE (Lux-ACP) with no further purification.

[3] = system: A. orientalis CepK; assay: AcpH qualitative CP activity, gel-based, crypto-CP; assay type: biochemical; details: NRPS; crypto-CP (coumarin-PPant), overnight, 37° C., 1 μM AcpH
[4] = system: YbbR13; assay: AcpH activity with modified ybbR peptide, qualitative; assay type: biochemical; details: coumarin-PPant labeled
[5] = target: M. tuberculosis AcpM (Mycobacterium tuberculosis, UniProt P9WQF3); details: FAS; crypto-CP (coumarin-PPant), overnight, 37° C., 1 μM AcpH
[6] = target: T1, A. parasiticus PksA (Aspergillus parasiticus, UniProt Q12053); assay: AcpH qualitative CP activity, gel-based, crypto-CP; assay type: biochemical; details: PKS; crypto-CP (coumarin-PPant), overnight, 37° C., 1 μM AcpH
T1 construct: made in house

[7] = system: G. fujikuroi Pks4; assay: AcpH qualitative CP activity, gel-based, crypto-CP; assay type: biochemical; details: PKS; crypto-CP (coumarin-PPant), overnight, 37° C., 1 μM AcpH
Experimental: Unless otherwise noted, all coumarin-PPant labeling proceeded as follows: apo-carrier protein or peptide at 50-200 μM were labeled in 50 mM Na-HEPES pH 7.5, 10 mM MgCl2, 8 mM ATP, 0.1 μM MBP-CoaA/D/E, 0.1 μM native Sfp, and 1.1 equivalents of coumarin-pantetheine at 37° C. overnight. Crypto-protein samples were repurified using standard IMAC techniques in pH 8 lysis buffer with Ni-NTA resin, and spin-concentrated/buffer exchanged to remove imidazole and concentrate with 0.5 mL 3 kDa MWCO cellulose filters. Crypto-peptide samples were purified with HPLC, lyophilized, and redissolved in 50 mM TrisCl pH 8.0 prior to analysis.
Following AcpH treatment, an equal volume of 2×SDS-PAGE loading dye was added to crypto-carrier proteins samples and heated 5 min at 90° C., and run on 12% or 15% SDS-PAGE. Gels were fixed in 50/40/10% water/methanol/acetic acid for 30 minutes, and washed with water three times before UV imaging. Holo-carrier protein reactions were analyzed with Urea-PAGE as previously described.^6 All protein gels were Coomassie stained for evaluating total protein. Crypto-peptides were evaluated on Urea-PAGE, and were imaged immediately after running with no gel fixing.

E. coli ACP (AcpP), sequence (P0A6A8 whole entry, the tested form may be a part): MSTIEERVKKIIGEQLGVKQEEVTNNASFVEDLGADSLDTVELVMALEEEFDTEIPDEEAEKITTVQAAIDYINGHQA
T1 sequence (Q12053 1703-1791, looked up, natural form): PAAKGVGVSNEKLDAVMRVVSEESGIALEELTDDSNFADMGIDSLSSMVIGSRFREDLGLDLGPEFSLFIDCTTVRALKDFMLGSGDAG

B1: PaAcpH: acyl carrier protein hydrolase (AcpH) from P. aeruginosa PAO1, NP13 253043.1 (protein)
chain: MNYLAHLHLGGPQPAQLLGSLYGDFVKGRLQGQWPDEIERAIQLHRRIDAFTDSHPLVHAAKRRFPLERRRFAGVLLDVFFDHCLARDWNDYADEPLPQFVERVYGTLRTASPLPERLARIAPRMAAQDWLGSYREFAVLREVLGGMSRRLSRPHLLDGSWEELAQRYDDLSADFRAFYPQLQAFALSQR
removal of coumarin-PPT from ACP ([1]; coumarin-labeled E. coli DK554 lysate, 254 nm): uniformly removed
removal of rhodamine label from ACP ([1]; rhodamine-labeled ACP, 532 nm): can also be removed
removal of rhodamine-PPT from ACP fusion proteins [2]: removed rhodamine-PPT
AcpH qualitative CP activity [3]: no
AcpH activity with modified ybbR peptide ([4]; YbbR13: N-term 6xHis, C-term GFP): no
AcpH activity with modified ybbR peptide ([4]; YbbR13: N-term FITC, C-term N/A): no
AcpH activity with modified ybbR peptide ([4]; YbbR13: N-term GFP, C-term 6xHis): no
AcpH activity with modified ybbR peptide ([4]; YbbR13 free peptide: N-term N/A, C-term N/A): no
AcpH qualitative CP activity [5]: YES
AcpH qualitative CP activity [6]: YES
AcpH qualitative CP activity [7]: no
